# B1: AMX(395)_A4 (ssDNA)
# DNA: TCCCGGGAGATCGCTTCGAAAATGGTTGGCGTGGGTGGCTGAGGATCGATC
# Target: prothrombin (Homo sapiens, UniProt P00734 P00734:44-622)
# Test: filter; 50 nM prothrombin
# Settings: tags: Athens Research
# Procedure: Dot blot binding assays were performed throughout the selections to monitor the protein binding affinity of the pools. Trace ³²P-labeled RNA was combined with a dilution series of human Thrombin (1 nM-1000 nM) and incubated at room temperature for 30 minutes in 1×DPBS (w/ Ca²⁺ and Mg²⁺) (Gibco, Catalog #14040, Invitrogen, Carlsbad, Calif.) plus 0.1 mg/ml BSA in a final volume of 30 μl. The binding reactions were analyzed by nitrocellulose filtration using a Minifold I dot-blot, 96-well vacuum filtration manifold (Schleicher & Schuell, Keene, N.H.). A three-layer filtration medium was used, consisting (from top to bottom) of Protran nitrocellulose (Schleicher & Schuell, Keene, N.H.), Hybond-P nylon (Amersham Biosciences, Piscataway, N.J.) and GB002 gel blot paper (Schleicher & Schuell, Keene, N.H.). RNA that is bound to protein is captured on the nitrocellulose filter, whereas the non-protein bound RNA is captured on the nylon filter. The gel blot paper was included simply as a supporting medium for the other filters. Following filtration, the filter layers were separated, dried and exposed on a phosphor screen (Amersham Biosciences, Piscataway, N.J.) and quantified using a Storm 860 Phosphorimager® blot imaging system (Amersham Biosciences, Piscataway, N.J.).
# Based on pool binding monitored throughout the selections as described above, Round 9 Pools from both Selection #2 and #3 were also cloned using a TOPO TA Cloning kit (Invitrogen, Carlsbad, Calif.) according to manufacturer's instructions, and sequenced. Of the 136 sequences obtained from Round 9 of both selections, 130 unique sequences were selected for assaying in a single-point dot blot screen against thrombin and prothrombin to test for selective binding to thrombin. Clones were ordered from IDT (Coralville, Iowa) at 25 μmole synthesis scale. Clone transcripts were 5′ end labeled with γ̅³²P ATP and spin purified with Centrisep columns (Princeton Separations, Adelphia, N.J.) to remove excess label. Trace amounts of labeled clone were incubated with +/−10 nM Thrombin (or +/−50 nM prothrombin) and 0.1 mg/ml BSA in a total volume of 30 μl 1×DPBS (w/ Ca²⁺ and Mg²⁺) (Gibco, Catalog #14040, Invitrogen, Carlsbad, Calif.) for 30 minutes. Post incubation, the binding reaction applied the dot-blot binding assay apparatus previously described.
row,Binder,binding signal [% bound]
1,TCCCGATCTATCCGGGGTACATTTGTGGTTTGGGTGGCTGAGGATCGATC (ssDNA) [AMX(399)_C12],17.2
2,TCCCAGAGAGCCGGGGTATAATTGTGGTGTGGGTGGCTGAGGATCGATC (ssDNA) [AMX(399)_D11],39.5
3,TCCCGAGCGATCGGGGTGGTTTTTTGGGAGTGGGTGGCTGAGGATCGATC (ssDNA) [AMX(399)_C7],6.94
4,TCCCATCGATTTGTCCTCAGAGGTTGGCGTGGGTGGCTGAGGATCGATC (ssDNA) [AMX(399)_B12],15.3
5,TTCCTGTCGATAAGGGGTATTATAGTGGTGTGGGTGGCTGAGGATCGATC (ssDNA) [AMX(399)_C9],10.9
6,TCCCGGATCTGTGGTAGGTTTGTTGGGTTGGGTGGCTGAGGATCGATC (ssDNA) [AMX(398)_E12],39.9
7,TCCCATCGAGCCGGGTATGTTTCGTTGGGCTGGGTGGCTGAGGATCGATC (ssDNA) [AMX(399)_E5],12.5
8,TCCCACGATCCGGGGTGTCTTTCGTGGGCTGGGTGGCTGAGGATCGATC (ssDNA) [AMX(399)_E1],39.1
9,TCCCGTCGATCAGGGGTAATTTGCTGGTGGTGGGTGGCTGAGGATCGATC (ssDNA) [AMX(399)_C8],33.8
10,TCCTGTCGATCCCTACGGGTAGTGTTGGTTTGGGTGGCTGAGGATCGATC (ssDNA) [AMX(399)_B9],14.3
11,TCCCGATTGTCATAGGTGGTTTGTCTGGGTAGGGTGGCTGAGGATCGATC (ssDNA) [AMX(399)_E10],28.9
12,TCCCGATTTCGATTCTGGTAGTGTTTTCTGGGTGGCTGAGGATCGATC (ssDNA) [AMX(399)_E3],13.3
13,TCCCGATCGAGAGTGGTATTTGTTTTCTGGGTGGCTGAGGATCGATC (ssDNA) [AMX(398)_F5],19.4
14,TCCCATCGAACCGCGGGTAATCTTATGGGTCGGGTGGCTGAGGATCGATC (ssDNA) [AMX(399)_E4],7.29
15,TCTCATTCGTTCCGGGGTATTTAGTGGGTCGGGTGGCTGAGGATCGATC (ssDNA) [AMX(399)_C10],34.3
16,TCCCGAGTGATCCGGGGTGTTTTTTTGGGTTGGGTGGCTGAGGATCGATC (ssDNA) [AMX(398)_E3],47.5
17,TCCCTCGATCTAAGGTGCTTTTAGTGGTTTGGGTGGCTGAGGATCGATC (ssDNA) [AMX(399)_D7],24.9
18,TCCCTTGATCCGGTGGTAGTTTTATTGGTGCGGGTGGCTGAGGATCGATC (ssDNA) [AMX(398)_F6],24.6
19,TCCCGCGATCTCTGGGGTAACGTTTTGGTGTGGGTGGCTGAGGATCGATC (ssDNA) [AMX(399)_D3],25.3
20,TCCCGTCGATTCGGTATGGTTTCGTTTCTGGGTGGCTGAGGATCGATC (ssDNA) [AMX(399)_B11],18.2
21,TCTCGATCGGACGTGGTGGGTTACTGGCTTGGGTGGCTGAGGATCGATC (ssDNA) [AMX(399)_D8],19.6
22,TCCCGATTGATTCTGGGAGGTTTGGTTCTGGGTGGCTGAGGATCGATC (ssDNA) [AMX(399)_D4],9.02
23,TCCCATCGATACGGGGTGGAATCTTGGGGTGGGTGGCTGAGGATCGATC (ssDNA) [AMX(399)_E9],13.8
24,TCCCGCATTGAATAGGACTCAGGGATGGTGTGGGTGGCTGAGGATCGATC (ssDNA) [AMX(399)_D6],22
25,TCCCATCGAGTCGTGGTGTTTTGTTGGCCTGGGTGGCTGAGGATCGATC (ssDNA) [AMX(398)_F2],8.81
26,TCCCATTGATCCGGGGTGGTTTTCTGGTTTGGGTGGCTGAGGATCGATC (ssDNA) [AMX(399)_B10],23.6
27,TCCCATCGATCTGTGGTGGTTTTGTGGTTTGGGTGGCTGAGGATCGATC (ssDNA) [AMX(399)_D10],40.8
28,TCCCAGGATCGATTCTGGTATTGTTGGTGGGGGTGGCTGAGGATCGATC (ssDNA) [AMX(399)_D9],19.7
29,TCCCATCGATCTGTGGTCTTTTTTGGTGTGGGTGGCTGAGGATCGATC (ssDNA) [AMX(399)_D12],32.2

# Target: T1, thrombin (alpha-thrombin) (Homo sapiens, UniProt P00734;P00734 P00734:315-363,P00734:364-622)
# Test: filter; 10 nM thrombin
# Settings: not given
row,Binder,binding signal [% bound]
1,TCCCGATCTATCCGGGGTACATTTGTGGTTTGGGTGGCTGAGGATCGATC (ssDNA) [AMX(399)_C12],18.7
2,TCCCAGAGAGCCGGGGTATAATTGTGGTGTGGGTGGCTGAGGATCGATC (ssDNA) [AMX(399)_D11],41.3
3,TCCCGAGCGATCGGGGTGGTTTTTTGGGAGTGGGTGGCTGAGGATCGATC (ssDNA) [AMX(399)_C7],6.8
4,TCCCATCGATTTGTCCTCAGAGGTTGGCGTGGGTGGCTGAGGATCGATC (ssDNA) [AMX(399)_B12],24.2
5,TTCCTGTCGATAAGGGGTATTATAGTGGTGTGGGTGGCTGAGGATCGATC (ssDNA) [AMX(399)_C9],11.2
6,TCCCGGATCTGTGGTAGGTTTGTTGGGTTGGGTGGCTGAGGATCGATC (ssDNA) [AMX(398)_E12],40.4
7,TCCCATCGAGCCGGGTATGTTTCGTTGGGCTGGGTGGCTGAGGATCGATC (ssDNA) [AMX(399)_E5],15
8,TCCCACGATCCGGGGTGTCTTTCGTGGGCTGGGTGGCTGAGGATCGATC (ssDNA) [AMX(399)_E1],37.6
9,TCCCGTCGATCAGGGGTAATTTGCTGGTGGTGGGTGGCTGAGGATCGATC (ssDNA) [AMX(399)_C8],36.8
10,TCCTGTCGATCCCTACGGGTAGTGTTGGTTTGGGTGGCTGAGGATCGATC (ssDNA) [AMX(399)_B9],14.7
11,TCCCGATTGTCATAGGTGGTTTGTCTGGGTAGGGTGGCTGAGGATCGATC (ssDNA) [AMX(399)_E10],29.8
12,TCCCGATTTCGATTCTGGTAGTGTTTTCTGGGTGGCTGAGGATCGATC (ssDNA) [AMX(399)_E3],13
13,TCCCGATCGAGAGTGGTATTTGTTTTCTGGGTGGCTGAGGATCGATC (ssDNA) [AMX(398)_F5],21.3
14,TCCCATCGAACCGCGGGTAATCTTATGGGTCGGGTGGCTGAGGATCGATC (ssDNA) [AMX(399)_E4],7.5
15,TCTCATTCGTTCCGGGGTATTTAGTGGGTCGGGTGGCTGAGGATCGATC (ssDNA) [AMX(399)_C10],35.4
16,TCCCTCGATCTAAGGTGCTTTTAGTGGTTTGGGTGGCTGAGGATCGATC (ssDNA) [AMX(399)_D7],7.59
17,TCCCTTGATCCGGTGGTAGTTTTATTGGTGCGGGTGGCTGAGGATCGATC (ssDNA) [AMX(398)_F6],23.9
18,TCCCGCGATCTCTGGGGTAACGTTTTGGTGTGGGTGGCTGAGGATCGATC (ssDNA) [AMX(399)_D3],21.7
19,TCCCGTCGATTCGGTATGGTTTCGTTTCTGGGTGGCTGAGGATCGATC (ssDNA) [AMX(399)_B11],18.7
20,TCTCGATCGGACGTGGTGGGTTACTGGCTTGGGTGGCTGAGGATCGATC (ssDNA) [AMX(399)_D8],22.2
21,TCCCGATTGATTCTGGGAGGTTTGGTTCTGGGTGGCTGAGGATCGATC (ssDNA) [AMX(399)_D4],10.4
22,TCCCATCGATACGGGGTGGAATCTTGGGGTGGGTGGCTGAGGATCGATC (ssDNA) [AMX(399)_E9],14.8
23,TCCCGCATTGAATAGGACTCAGGGATGGTGTGGGTGGCTGAGGATCGATC (ssDNA) [AMX(399)_D6],22.7
24,TCCCATCGAGTCGTGGTGTTTTGTTGGCCTGGGTGGCTGAGGATCGATC (ssDNA) [AMX(398)_F2],8.76
25,TCCCATTGATCCGGGGTGGTTTTCTGGTTTGGGTGGCTGAGGATCGATC (ssDNA) [AMX(399)_B10],24.4
26,TCCCATCGATCTGTGGTGGTTTTGTGGTTTGGGTGGCTGAGGATCGATC (ssDNA) [AMX(399)_D10],38.8
27,TCCCAGGATCGATTCTGGTATTGTTGGTGGGGGTGGCTGAGGATCGATC (ssDNA) [AMX(399)_D9],20.3
28,TCCCATCGATCTGTGGTCTTTTTTGGTGTGGGTGGCTGAGGATCGATC (ssDNA) [AMX(399)_D12],32.6

# Target: T1, thrombin (alpha-thrombin)
# Test: filter; DPBS Ca2+ Mg2+, 0.1 mg/ml BSA
# Settings: not given
row,Binder,Kd [nM]
1,TCCCGAGCGATACTGCCTAGGTTGGGTAGGGTGGTGGCTGAGGATCGATC (ssDNA) [AMX(398)_D6 (ARC2026)],0.29
2,B1,29.4
3,TCCCAAGATCGGTACATACAGTGGGTGGTGAGGGTGGCTGAGGATCGATC (ssDNA) [AMX(395)_D11],5.55
4,TCCCGAGTGATCCGGGGTGTTTTTTTGGGTTGGGTGGCTGAGGATCGATC (ssDNA) [AMX(398)_E3],0.89
5,TCCCGATCGCTGTCCTAGGATGGGTAGGGTGGTGGCTGAGGATCGATC (ssDNA) [AMX(399)_D2],1.33
6,TCCCGGGTGGTTATCTTCTCAGGGATGGTGTGGGTGGCTGAGGATCGATC (ssDNA) [AMX(395)_C1],7.48
7,TCCCGGGATCGAGTCCGATTAGGGATGGTGTGGGTGGCTGAGGATCGATC (ssDNA) [AMX(395)_B7],14.5

# From patent US20090221680, “Aptamers that bind thrombin with high affinity” (published 2009)
